The chains are these.
B1: Glucocorticoid receptor, residues 419 to 494; numbered along this chain, P04150 (parent)
chain: KLCLVCSDEASGCHYGVLTCGSCKVFFKRAVEGQHNYLCAGRNDCIIDKIRRKNCPACRYRKCLQAGMNLEARKTK

± gives the uncertainty stated by the source.

In the data set the parent is B1. Briefly: abundance fitness (aPCA) (normalised: wild type 0, dead -1); higher = more abundant; growth selection in yeast, the domain comes from the species named. To be noted: Homo sapiens.
As for KLCLVCSDEASGCHYGVLTCGSCVVFFKRAVEGQHNYLCAGRNDCIIDKIRRKNCPACRYRKCLQAGMNLEARKTK [K24V], the abundance fitness worked out at 0.015 ± 0.059. Next, KLCLVCSDEASGCHYGVLTCGFCKVFFKRAVEGQHNYLCAGRNDCIIDKIRRKNCPACRYRKCLQAGMNLEARKTK [S22F]: 0.043 ± 0.11. For the variant KLCLVCSDEASGCHYGVLTCGPCKVFFKRAVEGQHNYLCAGRNDCIIDKIRRKNCPACRYRKCLQAGMNLEARKTK [S22P], the abundance fitness was -0.06 ± 0.38. For KLCLVCSDEASGCHYGVLTCGDCKVFFKRAVEGQHNYLCAGRNDCIIDKIRRKNCPACRYRKCLQAGMNLEARKTK [S22D], the abundance fitness amounted to 0.136 ± 0.3. In the case of KLCLVCSDEASGCHYGVLTCGSCKVWFKRAVEGQHNYLCAGRNDCIIDKIRRKNCPACRYRKCLQAGMNLEARKTK [F26W], the abundance fitness is -0.462 ± 0.065. As for KLCLVCSDEASGCHYGVLTCGSCKVKFKRAVEGQHNYLCAGRNDCIIDKIRRKNCPACRYRKCLQAGMNLEARKTK [F26K], the abundance fitness was -0.929 ± 0.14. As to KLCLVCSDEASGCHYGVLTCGSCKVVFKRAVEGQHNYLCAGRNDCIIDKIRRKNCPACRYRKCLQAGMNLEARKTK [F26V], the abundance fitness was -0.738 ± 0.084. As for KLCLVCSDEASGCHYGVLTCGSCKVDFKRAVEGQHNYLCAGRNDCIIDKIRRKNCPACRYRKCLQAGMNLEARKTK [F26D], the abundance fitness is -1.01 ± 0.26. For KLCLVCSDEASGCHYGVLTCGSCKVYFKRAVEGQHNYLCAGRNDCIIDKIRRKNCPACRYRKCLQAGMNLEARKTK [F26Y], the abundance fitness is -0.36 ± 0.12.

Turning to KLCLVCSDEASGCHYGVLTCGSCKVGFKRAVEGQHNYLCAGRNDCIIDKIRRKNCPACRYRKCLQAGMNLEARKTK [F26G], the abundance fitness was -1 ± 0.11.

As to KLCLVCSDEASGCHYGVLTCGSCKVTFKRAVEGQHNYLCAGRNDCIIDKIRRKNCPACRYRKCLQAGMNLEARKTK [F26T], the abundance fitness was -1.06 ± 0.18. As for KLCLVCSDEASGCHYGVLTCGSCKVPFKRAVEGQHNYLCAGRNDCIIDKIRRKNCPACRYRKCLQAGMNLEARKTK [F26P], the figure is -0.872 ± 0.15; as for KLCLVCSDEASGCHYGVLTCGSCKVCFKRAVEGQHNYLCAGRNDCIIDKIRRKNCPACRYRKCLQAGMNLEARKTK [F26C], -0.636 ± 0.17; as for KLCLVCSDEASGCHYGVLTCGSCKVMFKRAVEGQHNYLCAGRNDCIIDKIRRKNCPACRYRKCLQAGMNLEARKTK [F26M], -0.793 ± 0.14.

As for KLCLVCSDEASGCHYGVLTCGSCKVEFKRAVEGQHNYLCAGRNDCIIDKIRRKNCPACRYRKCLQAGMNLEARKTK [F26E], the abundance fitness is -0.891 ± 0.12. In the case of KLCLVCSDEASGCHYGVLTCGSCKVNFKRAVEGQHNYLCAGRNDCIIDKIRRKNCPACRYRKCLQAGMNLEARKTK [F26N], the abundance fitness is -0.714 ± 0.28.

KLCLVCSDEASGCHYGVLTCGSCKVQFKRAVEGQHNYLCAGRNDCIIDKIRRKNCPACRYRKCLQAGMNLEARKTK [F26Q]: the abundance fitness was -0.858 ± 0.17. Next, KLCLVCSDEASGCHYGVLTCGSCKVHFKRAVEGQHNYLCAGRNDCIIDKIRRKNCPACRYRKCLQAGMNLEARKTK [F26H]: -0.513 ± 0.16; KLCLVCSDEASGCHYGVLTCGSCKVAFKRAVEGQHNYLCAGRNDCIIDKIRRKNCPACRYRKCLQAGMNLEARKTK [F26A]: -0.877 ± 0.099; KLCLVCSDEASGCHYGVLTCGSCKVSFKRAVEGQHNYLCAGRNDCIIDKIRRKNCPACRYRKCLQAGMNLEARKTK [F26S]: -0.703 ± 0.076. Consider KLCLVCSDEASGCHYGVLTCGSCKVRFKRAVEGQHNYLCAGRNDCIIDKIRRKNCPACRYRKCLQAGMNLEARKTK [F26R], for which the abundance fitness is -0.758 ± 0.071.

Turning to KLCLVCSDEASGCHYGVLTCGSCKVLFKRAVEGQHNYLCAGRNDCIIDKIRRKNCPACRYRKCLQAGMNLEARKTK [F26L], the abundance fitness is -0.655 ± 0.075. On to KLCLVCSDEASGCHYGVLTCGSCKVFIKRAVEGQHNYLCAGRNDCIIDKIRRKNCPACRYRKCLQAGMNLEARKTK [F27I], for which the abundance fitness was -0.26 ± 0.08. As for KLCLVCSDEASGCHYGVLTCGSCKVFRKRAVEGQHNYLCAGRNDCIIDKIRRKNCPACRYRKCLQAGMNLEARKTK [F27R], the figure is -0.678 ± 0.053; as for KLCLVCSDEASGCHYGVLTCGSCKVFVKRAVEGQHNYLCAGRNDCIIDKIRRKNCPACRYRKCLQAGMNLEARKTK [F27V], -0.386 ± 0.041. Turning to KLCLVCSDEASGCHYGVLTCGSCKVFSKRAVEGQHNYLCAGRNDCIIDKIRRKNCPACRYRKCLQAGMNLEARKTK [F27S], the abundance fitness is -0.681 ± 0.079. Next, KLCLVCSDEASGCHYGVLTCGSCKVFAKRAVEGQHNYLCAGRNDCIIDKIRRKNCPACRYRKCLQAGMNLEARKTK [F27A]: -0.25 ± 0.038. As to KLCLVCSDEASGCHYGVLTCGSCKVFKKRAVEGQHNYLCAGRNDCIIDKIRRKNCPACRYRKCLQAGMNLEARKTK [F27K], the abundance fitness is -0.951 ± 0.2. For the variant KLCLVCSDEASGCHYGVLTCGSCKVFNKRAVEGQHNYLCAGRNDCIIDKIRRKNCPACRYRKCLQAGMNLEARKTK [F27N], the abundance fitness is -0.722 ± 0.25. KLCLVCSDEASGCHYGVLTCGSCKVFDKRAVEGQHNYLCAGRNDCIIDKIRRKNCPACRYRKCLQAGMNLEARKTK [F27D]: the abundance fitness was -0.912 ± 0.18. On to KLCLVCSDEASGCHYGVLTCGSCKVFCKRAVEGQHNYLCAGRNDCIIDKIRRKNCPACRYRKCLQAGMNLEARKTK [F27C], for which the abundance fitness is -0.518 ± 0.11. As for KLCLVCSDEASGCHYGVLTCGSCKVFMKRAVEGQHNYLCAGRNDCIIDKIRRKNCPACRYRKCLQAGMNLEARKTK [F27M], the figure is -0.144 ± 0.052. As for KLCLVCSDEASGCHYGVLTCGSCKVFPKRAVEGQHNYLCAGRNDCIIDKIRRKNCPACRYRKCLQAGMNLEARKTK [F27P], the abundance fitness is -0.695 ± 0.15. Next, KLCLVCSDEASGCHYGVLTCGSCKVFGKRAVEGQHNYLCAGRNDCIIDKIRRKNCPACRYRKCLQAGMNLEARKTK [F27G]: -0.929 ± 0.089; KLCLVCSDEASGCHYGVLTCGSCKVFQKRAVEGQHNYLCAGRNDCIIDKIRRKNCPACRYRKCLQAGMNLEARKTK [F27Q]: -0.896 ± 0.14. As for KLCLVCSDEASGCHYGVLTCGSCKVFEKRAVEGQHNYLCAGRNDCIIDKIRRKNCPACRYRKCLQAGMNLEARKTK [F27E], the figure is -1.01 ± 0.16.
